Substrate in this data set: NC(=O)c1ccc[n+]([C@@H]2O[C@H](COP(=O)([O-])OP(=O)(O)OC[C@H]3O[C@@H](n4cnc5c(N)ncnc54)[C@H](O)[C@@H]3O)[C@@H](O)[C@H]2O)c1
Description: purified protein, by the assay type. Particulars: pH 7.25, 30.0 °C.

Where “and” joins values, the source holds several entries; their conditions need not be identical. Identical values can stand only once.

B1: PtxD (Stutzerimonas stutzeri) (protein)
chain: MLPKLVITHRVHDEILQLLAPHCELMTNQTDSTLTREEILRRCRDAQAMMAFMPDRVDADFLQACPELRVVGCALKGFDNFDVDACTARGVWLTFVPDLLTVPTAELAIGLAVGLGRHLRAADAFVRSGEFQGWQPQFYGTGLDNATVGILGMGAIGLAMADRLQGWGATLQYHEAKALDTQTEQRLGLRQVACSELFASSDFILLALPLNADTQHLVNAELLALVRPGALLVNPCRGSVVDEAAVLAALERGQLGGYAADVFEMEDWARADRPRLIDPALLAHPNTLFTPHIGSAVRAVRLEIERCAAQNIIQVLAGARPINAANRLPKAEPAAC
For B1, the Km by setting is: (other: Table 4, NAP as A, fit to Equilibrium ordered mechanism) 4520 µM; (other: Table 4, NAP as A, fit to Pingpong mechanism) 12800 µM; (other: substrates of PtxD) 54.6 ± 6.7 µM and 50 µM.

(Values after patent US20040091985A1, “NAD phosphite oxidoreductase, a novel catalyst from bacteria for regeneration of NAD(P)H” (priority 2002, published 2004).)
